The supplement of paper PMC9170038

test system: MS2 coat protein; experiment: apparent KD of MS2 coat protein; higher = weaker reporter binding; conditions: Eterna round: R107; input ligand: arginine 13.2 mM
Protocol: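 RNA-MaP round R107: designed RNA switches with theophylline, tryptophan, arginine or FMN aptamers are transcribed on-chip within common flanks. They are titrated with SNAP-549-labelled MS2 coat protein in RNA-MaP buffer (100 mM Tris pH 7.5, 80 mM KCl, 4 mM MgCl2), without ligand or with the indicated ligand. Median apparent KD per design.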

Row | Sequence | apparent KD of MS2 coat protein [nM]
1 | AGCCAUGGAAACAUGGCGGCGGCUUGAGCGCGAGGACCGGUACGGCCGCCACUCGGGCAACAUGAGGAUCACCCAUGUUCCUCAU [ETA NP+V+V2 #19] | 64
2 | AGCGUUCGGUUUAUGCCGGACAAUGGGUGACGAGGACCGGUACGGCCGCCACUCGGGCGCCCGGUUACAUGAGGAUCACCCAUGU [Oresrile] | 74.3
3 | AUUAAUAGUUGUGAUACCAGACGAACAUGAGGAUCACCCAUGUAACUUAAGAGUGUUGAUGUCCCUUGGCAGCACUGUUUAGUUA [JR_SSTheophyB_Sub015] | 59.5
4 | GGAUGCCACUAUGGAUAGCACGAUGCCGAUACCAGCUAGGAAACUAGCCCUUGGCAGCGGAACAUGAGGAUCACCCAUGUAUCCU [EThA NP+V+V2 #8] | 21.3
5 | GGAGGUACCUGAAGGAGCGACAUGAGGAUCACCCAUGUCUCCCGUUAUGGGAGUUCUUUAGGUCAGGUAGGUCGCAGGUACCUCC [#1 Exclusion - Arginine B Attempt #3 (Inspired by Omei)] | 13.7
6 | AUAUGAUCAUGUGAUACCAGAAAUGGUAGUCCUCGCUGGAUUACAUGAGGAUCACCCAUGUUCCCUUGGCAGCAUAUGAUCAUAU [#02 Exclusion-TheophyllineB] | 50.5
7 | GGUAUGUAUUCGGAAACGAAUGCAUACCAACGAGGACCGGUACGGCCGCCACUCGGCGGCGAUCAACAUGAGGAUCACCCAUGUA [Ex Tryptophan A 3] | 26.2
8 | AGAUUCGACACGGCCGCCACUCGUGACAGAUUUCGCAGUGGUCAACAUGAGGAUCACCCAUGUCUGAGGACCGGGUGUUGAGUCU [XTryp B #9] | 36.4
9 | AACAUACAAUUUUAGGUGGAUAUAAGGCGGCGAGGACCGGUACGGCCGCCACUCGCGUACAUGAGGAUCACCCAUGUCUGAAGCU [Same State - Tryptophan A (Freestyle 6)] | 12.8
10 | AGUGAUGACCGAAGGAGCGCGGGAAACAUGAGGAUCACCCAUGUACUCCUCAGUGUUAUAACGCAGGUAGGUCGCGGUUAUGGCU [X-ArgiB-ms2@26] | 148
11 | GCAUCCUAGUCGGCCGCCACUGCGGAUCCGGUUCUAGAUCCUUAACAUGAGGAUCACCCAUGUAGCAGGACCGGGACUAGGAUGC [(Trp1)-(TM)''-(TM)'-(Ms2)-(Trp2)_Design2] | 91
12 | AGAUUCGACACGGCCGCCACUUGUGGUGGAGGGUCUUUAGUCACACAUGAGGAUCACCCAUGUACAAGGACCGGGUGUUGAGUCU [XTryp B #23] | 19.1
13 | UACUUGCUGACGGCCGCCACUAGAACAUGAGGAUCACCCAUGUAGGUCCUAGAUUCCUCAUGAACUAGGACCGGGUCAGCAAGAU [(Trp1)-(Ms2)-(T)'-(M)'-(Trp2)_Design15] | 53.7
14 | GCUAGGUCUACGGCCGCCACUAGACAUGGGUAAGACAUGAGGAUCACCCAUGUACUACGAGUGCAUAGGACCGGGUAGACCUAGC [SSTB NP+V+V2 #19 +-Same Structure] | 111
15 | GGUGAUCCGUAUCACCGGAUCACCGGUGAUACCAGCAUCGAAAGAUGCCCUUGGCAGCACCAACAUGAGGAUCACCCAUGUAAUA [(M)'-(T)'-(M)''-(T1)-(T2)-(M1)-(M2)_Design6b] | 69.6
16 | ACUCGACCAUCAGCCAUUUGUGAAUCACGGCGAGGACCGGUACGGCCGCCACUCGACAUGAGGAUCACCCAUGUAAGACCGGUGU [vmullin3] | 24
17 | AUUAUCAUGGUCAUAUAUAUAUCGUCAGAUACCAGACUAGAUAUAGUCCCUUGGCAGCUGUUACAUGAGGAUCACCCAUGUUAUA [JR_ExcTheophyA_Sub015] | 43.5
18 | UACCGAUACGGAAGGAGCGUAGAAGUAGUACAUGAGGAUCACCCAUGUAUGGGUAAUUUCGUACAGGUAGGUCGCCGUAUCGGUA [SSAB NP+V+V2 #23] | 23.3

Row | Sequence | apparent KD of MS2 coat protein [nM]
19 | UCGACGAUGACCAAAGGUCAGGAGUACGUACGAGGACCGGUACGGCCGCCACUCGAGGAGUGGGACAUGAGGAUCACCCAUGUGG [#20 Exclusion Tryptophan A] | 16.6
20 | UACAUAUGCCGAAGGAGCGCGAGAUGCAAAGCAUCAUUCCUCACAUGAGGAUCACCCAUGUCGCAGGUAGGUCGCGGCAUAUGUU [ArgBX] | 46.7
21 | AACAGGGCUCGCACGAAGCCCUAAGGUGAUACCAGCACAUGUAAGUGCCCUUGGCAGCACGGUACAUGAGGAUCACCCAUGUAGA [Isleenen] | 19.7
22 | GACGAGUAGACGGCCGCCACUAUGCUGCGCAGCCCUAGAAACGCACAUGAGGAUCACCCAUGUCUUAGGACCGGGUCGAACUUAA [theeternabot_sameState_MS2_Trp_B_48] | 47.7
23 | UGAUGGAACGGAAGGAGCGUGUAAGAACAAGAACAUGAGGAUCACCCAUGUAUUAAUUUAACACAGGUAGGUCGCCGAGUUAUUG [11.F] | 9.42
24 | ACAUGAGGAUCACCCAUGUAAUUUACAGAAGGAGCGUGAUGGAUCACAGGUAGGUCGCUGUACUGCGAAAGCACUCUCAUGAAUA [JR_Nu_SSArginiA_Sub025] | 18.6
25 | GCUGUACCAUGAAGGAGCGUCAUGGAUUGCGAAUACACAUGAGGAUCACCCAUGUUUUUAUGACAGGUAGGUCGCAUGGUACAGC [#01 Same State - Arginine B] | 17.8
26 | ACAUGAGGAUCACCCAUGUAUUACCGGGAAGGAGCGCGUAAGGACGCAGGUAGGUCGCUCGGCGUCUGGCCGCAAGGCUGGACGA [#1 Same State - Arginine A Attempt #18 (HarryS)] | 12.6
27 | AGCGAUAUGCAUGAUACCAGCUACAUGAGGAUCACCCAUGUGCGUCAGUAAUGACUGUGUAGCCCUUGGCAGCAUAGAGCAUGUA [Exclusion - Theophylline B (Freestyle 12)] | 29.5
28 | UCGUUUUAGUCGGCCGCCACUGGUCUCAUGUUCAACAUGAGGAUCACCCAUGUAUCUUAUUUUAACAGGACCGGGACGUAAUAGA [#16 Exclusion Tryptophan B] | 90.8
29 | UGGUACAUGAGGAUCACCCAUGUUCCAGAUACCAGUGUCCCGCUGCACCCUUGGCAGCUGGUGGCACAUGAGGAUCACCCAUGUG [Exclusion Theophylline A GF12] | 11.5
30 | CAUUGUUAGACGGCCGCCACUUUUGGUUCGGAACGAUCGAUUGGACAUGAGGAUCACCCAUGUGGAAGGACCGGGUCUAAUCAAA [theeternabot_sameState_MS2_Trp_B_20] | 83
31 | AAGUGGCACGGAAGGAGCGAGUUUGCCUAUUACAUGAGGAUCACCCAUGUGGGUAAUGGGACUCAGGUAGGUCGCCGUUGUCACU [Same State Arginine B GF 26] | 29.5
32 | GUUGCACAUGAGGAUCACCCAUGUUUGGAUACCAGUCUCUGUAAUGACCCUUGGCAGCCACCAUAGACGCUUGAGUAGAGCCUGA [theeternabot_sameState_MS2_Theo_A_21] | 14.2
33 | AGAGAUGAACAUGAGGAUCACCCAUGUAAACGAGGACCGGUACGGCCGCCACUCGUGGGUGUAAUAGAAUAAUAAGAGAAUAAUA [Turkey 1] | 24.4
34 | AGUAUACAUUCUGAUACCAGAGACAUGAGGAUCACCCAUGUCCGAUCGUCCUGCCUCAGACUCCCUUGGCAGCAGGAUAUGUGCU [Exclusion Theophylline B GF5] | 16.2
35 | UAUCGCGCGGCGGCCGCCACUAAUGGCAGAUCUGUCGACUAACAUGAGGAUCACCCAUGUCUAACUAGGACCGGGCCCAAGUUGU [theeternabot_sameState_MS2_Trp_B_7] | 30.5
36 | AAAAUAAAUAAAACGCGUAACAUGAAGGAUACCAGCCAGAAAACUGGCCCUUGGCAGCCUCUACAUGAGGAUCACCCAUGUCGCG [Mat - Same State Theophlline A - Mod of Eli - D15] | 161
